# Test results from paper PMC7367873, “Dissecting the sequence determinants for dephosphorylation by the catalytic subunits of phosphatases PP1 and PP2A” (Nature Communications, 2020).
# B1: CCDC6 (protein, UniProt Q16204 2-474, looked up)
# Coiled-coil domain-containing …: ADSASESDTDGAGGNSSSSAAMQSSCSSTSGGGGGGGGGGGGGKSGGIVISPFRLEELTNRLASLQQENKVLKIELETYKLKCKALQEENRDLRKASVTIQARAEQEEEFISNTLFKKIQALQKEKETLAVNYEKEEEFLTNELSRKLMQLQHEKAELEQHLEQEQEFQVNKLMKKIKKLENDTISKQLTLEQLRREKIDLENTLEQEQEALVNRLWKRMDKLEAEKRILQEKLDQPVSAPPSPRDISMEIDSPENMMRHIRFLKNEVERLKKQLRAAQLQHSEKMAQYLEEERHMREENLRLQRKLQREMERREALCRQLSESESSLEMDDERYFNEMSAQGLRPRTVSSPIPYTPSPSSSRPISPGLSYASHTVGFTPPTSLTRAGMSYYNSPGLHVQHMGTSHGITRPSPRRSNSPDKFKRPTPPPSPNTQTPVQPPPPPPPPPMQPTVPSAATSQPTPSQHSAHPSSQP
# B2: NCKAP1 (protein, UniProt Q9Y2A7 2-1128, looked up)
# Nck-associated protein 1: SRSVLQPSQQKLAEKLTILNDRGVGMLTRLYNIKKACGDPKAKPSYLIDKNLESAVKFIVRKFPAVETRNNNQQLAQLQKEKSEILKNLALYYFTFVDVMEFKDHVCELLNTIDVCQVFFDITVNFDLTKNYLDLIITYTTLMILLSRIEERKAIIGLYNYAHEMTHGASDREYPRLGQMIVDYENPLKKMMEEFVPHSKSLSDALISLQMVYPRRNLSADQWRNAQLLSLISAPSTMLNPAQSDTMPCEYLSLDAMEKWIIFGFILCHGILNTDATALNLWKLALQSSSCLSLFRDEVFHIHKAAEDLFVNIRGYNKRINDIRECKEAAVSHAGSMHRERRKFLRSALKELATVLSDQPGLLGPKALFVFMALSFARDEIIWLLRHADNMPKKSADDFIDKHIAELIFYMEELRAHVRKYGPVMQRYYVQYLSGFDAVVLNELVQNLSVCPEDESIIMSSFVNTMTSLSVKQVEDGEVFDFRGMRLDWFRLQAYTSVSKASLGLADHRELGKMMNTIIFHTKMVDSLVEMLVETSDLSIFCFYSRAFEKMFQQCLELPSQSRYSIAFPLLCTHFMSCTHELCPEERHHIGDRSLSLCNMFLDEMAKQARNLITDICTEQCTLSDQLLPKHCAKTISQAVNKKSKKQTGKKGEPEREKPGVESMRKNRLVVTNLDKLHTALSELCFSINYVPNMVVWEHTFTPREYLTSHLEIRFTKSIVGMTMYNQATQEIAKPSELLTSVRAYMTVLQSIENYVQIDITRVFNNVLLQQTQHLDSHGEPTITSLYTNWYLETLLRQVSNGHIAYFPAMKAFVNLPTENELTFNAEEYSDISEMRSLSELLGPYGMKFLSESLMWHISSQVAELKKLVVENVDVLTQMRTSFDKPDQMAALFKRLSSVDSVLKRMTIIGVILSFRSLAQEALRDVLSYHIPFLVSSIEDFKDHIPRETDMKVAMNVYELSSAAGLPCEIDPALVVALSSQKSENISPEEEYKIACLLMVFVAVSLPTLASNVMSQYSPAIEGHCNNIHCLAKAINQIAAALFTIHKGSIEDRLKEFLALASSSLLKIGQETDKTTTRNRESVYLLLDMIVQESPFLTMDLLESCFPYVLLRNAYHAVYKQSVTSSA
# B3: RAPGEF2 (protein, UniProt Q9Y4G8 1-1499, looked up)
# Rap guanine nucleotide …: MKPLAIPANHGVMGQQEKHSLPADFTKLHLTDSLHPQVTHVSSSHSGCSITSDSGSSSLSDIYQATESEAGDMDLSGLPETAVDSEDDDDEEDIERASDPLMSRDIVRDCLEKDPIDRTDDDIEQLLEFMHQLPAFANMTMSVRRELCAVMVFAVVERAGTIVLNDGEELDSWSVILNGSVEVTYPDGKAEILCMGNSFGVSPTMDKEYMKGVMRTKVDDCQFVCIAQQDYCRILNQVEKNMQKVEEEGEIVMVKEHRELDRTGTRKGHIVIKGTSERLTMHLVEEHSVVDPTFIEDFLLTYRTFLSSPMEVGKKLLEWFNDPSLRDKVTRVVLLWVNNHFNDFEGDPAMTRFLEEFENNLEREKMGGHLRLLNIACAAKAKRRLMTLTKPSREAPLPFILLGGSEKGFGIFVDSVDSGSKATEAGLKRGDQILEVNGQNFENIQLSKAMEILRNNTHLSITVKTNLFVFKELLTRLSEEKRNGAPHLPKIGDIKKASRYSIPDLAVDVEQVIGLEKVNKKSKANTVGGRNKLKKILDKTRISILPQKPYNDIGIGQSQDDSIVGLRQTKHIPTALPVSGTLSSSNPDLLQSHHRILDFSATPDLPDQVLRVFKADQQSRYIMISKDTTAKEVVIQAIREFAVTATPDQYSLCEVSVTPEGVIKQRRLPDQLSKLADRIQLSGRYYLKNNMETETLCSDEDAQELLRESQISLLQLSTVEVATQLSMRNFELFRNIEPTEYIDDLFKLRSKTSCANLKRFEEVINQETFWVASEILRETNQLKRMKIIKHFIKIALHCRECKNFNSMFAIISGLNLAPVARLRTTWEKLPNKYEKLFQDLQDLFDPSRNMAKYRNVLNSQNLQPPIIPLFPVIKKDLTFLHEGNDSKVDGLVNFEKLRMIAKEIRHVGRMASVNMDPALMFRTRKKKWRSLGSLSQGSTNATVLDVAQTGGHKKRVRRSSFLNAKKLYEDAQMARKVKQYLSNLELEMDEESLQTLSLQCEPATNTLPKNPGDKKPVKSETSPVAPRAGSQQKAQSLPQPQQQPPPAHKINQGLQVPAVSLYPSRKKVPVKDLPPFGINSPQALKKILSLSEEGSLERHKKQAEDTISNASSQLSSPPTSPQSSPRKGYTLAPSGTVDNFSDSGHSEISSRSSIVSNSSFDSVPVSLHDERRQRHSVSIVETNLGMGRMERRTMIEPDQYSLGSYAPMSEGRGLYATATVISSPSTEELSQDQGDRASLDAADSGRGSWTSCSSGSHDNIQTIQHQRSWETLPFGHTHFDYSGDPAGLWASSSHMDQIMFSDHSTKYNRQNQSRESLEQAQSRASWASSTGYWGEDSEGDTGTIKRRGGKDVSIEAESSSLTSVTTEETKPVPMPAHIAVASSTTKGLIARKEGRYREPPPTPPGYIGIPITDFPEGHSHPARKPPDYNVALQRSRMVARSSDTAGPSSVQQPHGHPTSSRPVNKPQWHKPNESDPRLAPYQSQGFSTEEDEDEQVSAV
# B4: IRS2 (protein, UniProt Q9Y4H2 1-1338, looked up)
# Insulin receptor substrate 2: MASPPRHGPPGPASGDGPNLNNNNNNNNHSVRKCGYLRKQKHGHKRFFVLRGPGAGGDEATAGGGSAPQPPRLEYYESEKKWRSKAGAPKRVIALDCCLNINKRADAKHKYLIALYTKDEYFAVAAENEQEQEGWYRALTDLVSEGRAAAGDAPPAAAPAASCSASLPGALGGSAGAAGAEDSYGLVAPATAAYREVWQVNLKPKGLGQSKNLTGVYRLCLSARTIGFVKLNCEQPSVTLQLMNIRRCGHSDSFFFIEVGRSAVTGPGELWMQADDSVVAQNIHETILEAMKALKELFEFRPRSKSQSSGSSATHPISVPGARRHHHLVNLPPSQTGLVRRSRTDSLAATPPAAKCSSCRVRTASEGDGGAAAGAAAAGARPVSVAGSPLSPGPVRAPLSRSHTLSGGCGGRGSKVALLPAGGALQHSRSMSMPVAHSPPAATSPGSLSSSSGHGSGSYPPPPGPHPPLPHPLHHGPGQRPSSGSASASGSPSDPGFMSLDEYGSSPGDLRAFCSHRSNTPESIAETPPARDGGGGGEFYGYMTMDRPLSHCGRSYRRVSGDAAQDLDRGLRKRTYSLTTPARQRPVPQPSSASLDEYTLMRATFSGSAGRLCPSCPASSPKVAYHPYPEDYGDIEIGSHRSSSSNLGADDGYMPMTPGAALAGSGSGSCRSDDYMPMSPASVSAPKQILQPRAAAAAAAAVPSAGPAGPAPTSAAGRTFPASGGGYKASSPAESSPEDSGYMRMWCGSKLSMEHADGKLLPNGDYLNVSPSDAVTTGTPPDFFSAALHPGGEPLRGVPGCCYSSLPRSYKAPYTCGGDSDQYVLMSSPVGRILEEERLEPQATPGPSQAASAFGAGPTQPPHPVVPSPVRPSGGRPEGFLGQRGRAVRPTRLSLEGLPSLPSMHEYPLPPEPKSPGEYINIDFGEPGARLSPPAPPLLASAASSSSLLSASSPASSLGSGTPGTSSDSRQRSPLSDYMNLDFSSPKSPKPGAPSGHPVGSLDGLLSPEASSPYPPLPPRPSASPSSSLQPPPPPPAPGELYRLPPASAVATAQGPGAASSLSSDTGDNGDYTEMAFGVAATPPQPIAAPPKPEAARVASPTSGVKRLSLMEQVSGVEAFLQASQPPDPHRGAKVIRADPQGGRRRHSSETFSSTTTVTPVSPSFAHNPKRHNSASVENVSLRKSSEGGVGVGPGGGDEPPTSPRQLQPAPPLAPQGRPWTPGQPGGLVGCPGSGGSPMRRETSAGFQNGLNYIAIDVREEPGLPPQPQPPPPPLPQPGDKSSWGRTRSLGGLISAVGVGSTGGGCGGPGPGALPPANTYASIDFLSHHLKEATIVKE
# B5: ZFP36L2 (protein, UniProt P47974 1-494, looked up)
# mRNA decay activator protein …: MSTTLLSAFYDVDFLCKTEKSLANLNLNNMLDKKAVGTPVAAAPSSGFAPGFLRRHSASNLHALAHPAPSPGSCSPKFPGAANGSSCGSAAAGGPTSYGTLKEPSGGGGTALLNKENKFRDRSFSENGDRSQHLLHLQQQQKGGGGSQINSTRYKTELCRPFEESGTCKYGEKCQFAHGFHELRSLTRHPKYKTELCRTFHTIGFCPYGPRCHFIHNADERRPAPSGGASGDLRAFGTRDALHLGFPREPRPKLHHSLSFSGFPSGHHQPPGGLESPLLLDSPTSRTPPPPSCSSASSCSSSASSCSSASAASTPSGAPTCCASAAAAAAAALLYGTGGAEDLLAPGAPCAACSSASCANNAFAFGPELSSLITPLAIQTHNFAAVAAAAYYRSQQQQQQQGLAPPAQPPAPPSATLPAGAAAPPSPPFSFQLPRRLSDSPVFDAPPSPPDSLSDRDSYLSGSLSSGSLSGSESPSLDPGRRLPIFSRLSISDD
# Assays:
# [1] = test system: GFP-14-3-3β and its binding proteins; experiment: GFP-14-3-3β co-IP with LC-MS/MS label-free quantification, untreated versus PP1c-treated; set-up: species or system human; details: pairwise comparison PP1 vs untreated, student's t-test; 3 replicates each; LC-MS/MS label-free quantification
# GFP-14-3-3β = GFP-14-3-3β co-IP with LC-MS/MS, untreated GFP-14-3-3β versus GFP control (14-3-3 interactome); type: binding, human; details: pairwise comparison untreated GFP-14-3-3β vs GFP, student's t-test; 3 replicates each; LC-MS/MS label-free quantification
Molecule,"Difference (log2), PP1 vs untreated [1] [log2]","Difference (log2), untreated vs GFP (GFP-14-3-3β) [log2]"
B1,-3.654,4.515
B2,-3.667,2.589
B3,-3.585,2.788
B4,-3.665,7.914
B5,-3.391,3.556
